Data from article PMC11040006, “Molecular basis of an atypical dsDNA 5mC/6mA bifunctional dioxygenase CcTet from Coprinopsis cinerea in catalyzing dsDNA 5mC demethylation” (Nucleic Acids Research, 2024).

Legend:
[1] = target: T1, CcTet-ΔN16 (CcTet-Δ16; CcTet) (Coprinopsis cinerea, UniProt A8P1J0); assay: X-ray crystallography, […] Å; format: binding; details: complex with Mn2+ and 12-bp 5mC-dsDNA; 2 mM NOG in the crystallization mix; 2-oxoglutarate site
T1 construct: gene CC1G_05589; N-terminal 16 residues deleted; His-SUMO1 tag removed by Ulp1; expressed in E. coli BL21(DE3) from pET-SUMO
T1 sequence (A8P1J0 17-430): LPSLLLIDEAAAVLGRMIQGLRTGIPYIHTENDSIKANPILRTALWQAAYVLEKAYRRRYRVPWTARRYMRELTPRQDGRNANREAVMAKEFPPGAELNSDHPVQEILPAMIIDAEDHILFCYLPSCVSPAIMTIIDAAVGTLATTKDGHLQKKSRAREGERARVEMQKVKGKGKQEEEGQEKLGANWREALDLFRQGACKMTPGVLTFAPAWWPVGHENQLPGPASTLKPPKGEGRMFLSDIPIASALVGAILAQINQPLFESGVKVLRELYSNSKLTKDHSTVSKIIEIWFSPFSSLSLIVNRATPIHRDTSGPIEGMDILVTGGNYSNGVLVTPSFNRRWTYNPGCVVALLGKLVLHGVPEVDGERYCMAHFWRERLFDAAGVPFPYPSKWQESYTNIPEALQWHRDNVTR

CcTet-ΔN16 = target: T2, CcTet-ΔN16 (Coprinopsis cinerea, UniProt A8P1J0 17-430); assay: X-ray crystallography (2.3 Å); Mn2+, N-oxalylglycine (NOG); MST: NT-495 labeled protein, room temperature, 5 min incubation, buffer not stated (protein gel-filtration buffer 20 mM HEPES pH 7.0, 100 mM NaCl, 1 mM DTT). Crystals: 2 mM NOG, 1 mM MnCl2, protein:DNA 1:1.2, 20 mM sodium formate, 10% PEG8000, 277 K; details: protein: recombinant; tags: N-terminal His-Sumo1, removed by Ulp1; blunt; as printed, T of strand 2 (position 7) lies opposite 5mC6 (mismatch)
T2 sequence: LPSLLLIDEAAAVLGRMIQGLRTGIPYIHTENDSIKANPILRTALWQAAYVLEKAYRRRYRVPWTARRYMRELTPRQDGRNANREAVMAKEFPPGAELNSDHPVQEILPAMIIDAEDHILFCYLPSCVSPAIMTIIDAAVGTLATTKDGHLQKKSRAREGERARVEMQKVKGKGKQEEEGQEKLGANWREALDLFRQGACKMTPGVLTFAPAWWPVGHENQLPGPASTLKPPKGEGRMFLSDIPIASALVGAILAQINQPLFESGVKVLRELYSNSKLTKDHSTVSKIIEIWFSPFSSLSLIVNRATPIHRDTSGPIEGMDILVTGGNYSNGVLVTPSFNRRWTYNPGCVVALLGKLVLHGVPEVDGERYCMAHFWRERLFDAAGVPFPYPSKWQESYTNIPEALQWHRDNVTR

CcTet-ΔN16 H234A = target: T3, CcTet-ΔN16 H234A (Coprinopsis cinerea, UniProt A8P1J0 17-430, H234A); assay: MST; MST: NT-495 labeled protein, room temperature, 5 min incubation, buffer not stated (protein gel-filtration buffer 20 mM HEPES pH 7.0, 100 mM NaCl, 1 mM DTT). Crystals: 2 mM NOG, 1 mM MnCl2, protein:DNA 1:1.2, 20 mM sodium formate, 10% PEG8000, 277 K; details: protein: recombinant; tags: N-terminal His-Sumo1, removed by Ulp1; blunt
T3 sequence: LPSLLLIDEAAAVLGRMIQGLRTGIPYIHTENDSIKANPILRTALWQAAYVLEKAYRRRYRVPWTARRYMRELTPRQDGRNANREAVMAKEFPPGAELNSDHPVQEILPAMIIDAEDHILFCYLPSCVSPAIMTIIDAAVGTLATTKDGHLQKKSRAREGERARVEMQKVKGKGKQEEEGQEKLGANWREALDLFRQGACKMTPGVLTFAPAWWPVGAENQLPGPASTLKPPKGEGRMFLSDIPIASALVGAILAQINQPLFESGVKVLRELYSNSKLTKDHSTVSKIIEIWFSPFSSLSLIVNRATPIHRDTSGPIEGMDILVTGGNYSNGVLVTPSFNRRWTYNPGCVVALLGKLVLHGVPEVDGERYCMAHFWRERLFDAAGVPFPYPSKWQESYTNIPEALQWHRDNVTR

CcTet-ΔN16 R92A = target: T4, CcTet-ΔN16 R92A (Coprinopsis cinerea, UniProt A8P1J0 17-430, R92A); assay: as above; details: protein: recombinant; tags: N-terminal His-Sumo1, removed by Ulp1; blunt
T4 sequence: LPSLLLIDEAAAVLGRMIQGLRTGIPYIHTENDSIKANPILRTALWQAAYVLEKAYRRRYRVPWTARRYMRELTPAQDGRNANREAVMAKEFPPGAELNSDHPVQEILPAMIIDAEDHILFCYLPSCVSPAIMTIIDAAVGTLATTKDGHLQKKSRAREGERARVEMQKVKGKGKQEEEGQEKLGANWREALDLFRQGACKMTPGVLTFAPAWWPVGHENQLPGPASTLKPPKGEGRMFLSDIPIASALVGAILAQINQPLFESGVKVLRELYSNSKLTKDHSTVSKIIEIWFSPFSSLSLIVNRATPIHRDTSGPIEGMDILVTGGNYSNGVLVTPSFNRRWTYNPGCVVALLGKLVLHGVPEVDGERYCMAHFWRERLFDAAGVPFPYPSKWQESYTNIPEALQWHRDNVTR

CcTet-ΔN16 R96A = target: T5, CcTet-ΔN16 R96A (Coprinopsis cinerea, UniProt A8P1J0 17-430, R96A); assay: as above; details: protein: recombinant; tags: N-terminal His-Sumo1, removed by Ulp1; blunt
T5 sequence: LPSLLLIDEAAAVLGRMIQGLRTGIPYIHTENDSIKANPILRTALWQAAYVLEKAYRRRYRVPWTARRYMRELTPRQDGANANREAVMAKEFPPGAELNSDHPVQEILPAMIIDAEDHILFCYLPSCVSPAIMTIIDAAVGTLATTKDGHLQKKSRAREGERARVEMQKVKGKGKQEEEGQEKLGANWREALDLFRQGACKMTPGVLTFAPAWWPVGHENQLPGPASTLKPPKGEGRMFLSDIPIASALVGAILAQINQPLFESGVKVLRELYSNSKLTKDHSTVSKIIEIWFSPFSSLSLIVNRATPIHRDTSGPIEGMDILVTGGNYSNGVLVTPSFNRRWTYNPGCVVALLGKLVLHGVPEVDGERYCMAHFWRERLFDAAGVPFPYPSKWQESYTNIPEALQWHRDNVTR

Molecule: O=C(O)CNC(=O)C(=O)O [N-oxalylglycine]
- X-ray crystallography, 2.3 Å [1]: NOG was stabilized through hydrophilic and hydrophobic interactions with several nearby residues

B1: 12-bp 5mC-dsDNA (dsDNA)
DNA 1: CGATCCGCTACG
DNA 2: CGTAGCTGATCG
modifications: 5mC at position 6 of strand 1
- binding result (CcTet-ΔN16): binds

B2: 19-bp 5mC-dsDNA (dsDNA)
DNA 1: TCTGGAACGGAATTCTTCA
DNA 2: TGAAGAATTCCGTTCCAGA
modifications: 5mC at position 8 of strand 1
- binding result (CcTet-ΔN16 H234A): no binding
- binding result (CcTet-ΔN16 R92A): no binding
- binding result (CcTet-ΔN16 R96A): no binding
